# Data from patent US20180371086A1 (Gilead, published 2018).
# B1: PGT121.60 hIgG1/hLambda (antibody)
# heavy: QMQLQESGPGLVKPSETLSLTCSVSGASISDSYWSWIRRSPGKGLEWIGYVHKSGDTNYNPSLKSRVHLSLDTSKNQVSLSLTGVTAADSGKYYCARTLHGRRIYGIVAFNEWFTYFYMDVWGTGTQVTVSSASTKGPSVFPLAPSSKSTSGGTAALGCLVKDYFPEPVTVSWNSGALTSGVHTFPAVLQSSGLYSLSSVVTVPSSSLGTQTYICNVNHKPSNTKVDKKVEPKSCDKTHTCPPCPAPELLAGPDVFLFPPKPKDTLMISRTPEVTCVVVDVSHEDPEVKFNWYVDGVEVHNAKTKPREEQYNSTYRVVSVLTVLHQDWLNGKEYKCKVSNKALPLPEEKTISKAKGQPREPQVYTLPPSREEMTKNQVSLTCLVKGFYPSDIAVEWESNGQPENNYKTTPPVLDSDGSFFLYSKLTVDKSRWQQGNVFSCSVLHEALHSHYTQKSLSLSPGK
# light: not shown
# How the values were obtained:
# Test in all cases: cell-based or functional assay
# [1] = target: HIV-1 Env of virus MGRM-D-002 (HIV-1)
# [2] = target: HIV-1 Env of virus MGRM-Acute-B-001 (HIV-1)
# [3] = target: HIV-1 Env of virus MGRM-Chronic-B-008 (HIV-1)
# [4] = target: HIV-1 Env of virus MGRM-G-017 (HIV-1)
# [5] = target: HIV-1 Env of virus MGRM-Chronic-B-003 (HIV-1)
# [6] = target: HIV-1 Env of virus MGRM-A-012 (HIV-1)
# [7] = target: HIV-1 Env of virus MGRM-C-017 (HIV-1)
# [8] = target: HIV-1 Env of virus MGRM-F1-016 (HIV-1)
# [9] = target: HIV-1 Env of virus MGRM-F1-014 (HIV-1)
# [10] = target: HIV-1 Env of virus MGRM-C-023 (HIV-1)
# [11] = target: HIV-1 Env of virus MGRM-A-006 (HIV-1)
# [12] = target: HIV-1 Env of virus MGRM-C-018 (HIV-1)
# [13] = target: HIV-1 Env of virus MGRM-C-006 (HIV-1)
# [14] = target: HIV-1 Env of virus MGRM-Chronic-B-006 (HIV-1)
# [15] = target: HIV-1 Env of virus MGRM-AG-005 (HIV-1)
# [16] = target: HIV-1 Env of virus MGRM-AG-006 (HIV-1)
# [17] = target: HIV-1 Env of virus MGRM-F1-015 (HIV-1)
# [18] = target: HIV-1 Env of virus MGRM-C-013 (HIV-1)
# [19] = target: HIV-1 Env of virus MGRM-F1-020 (HIV-1)
# [20] = target: HIV-1 Env of virus MGRM-Acute-B-004 (HIV-1)
# [21] = target: HIV-1 Env of virus MGRM-G-014 (HIV-1)
# [22] = target: HIV-1 Env of virus MGRM-G-011 (HIV-1)
# [23] = target: HIV-1 Env of virus MGRM-C-002 (HIV-1)
# [24] = target: HIV-1 Env of virus MGRM-C-024 (HIV-1)
# [25] = target: HIV-1 Env of virus MGRM-F1-006 (HIV-1)
# [26] = target: HIV-1 Env of virus MGRM-AG-001 (HIV-1)
# [27] = target: HIV-1 Env of virus MGRM-Chronic-B-005 (HIV-1)
# [28] = target: HIV-1 Env of virus MGRM-Chronic-B-015 (HIV-1)
# [29] = target: HIV-1 Env of virus MGRM-D-001 (HIV-1)
# [30] = target: HIV-1 Env of virus MGRM-Chronic-B-022 (HIV-1)
# [31] = target: HIV-1 Env of virus MGRM-Chronic-B-007 (HIV-1)
binder,measurement,setting,value
B1,PGT121.60 IC50,[1],0.0015 µg/mL
same,PGT121.60 IC50,[2],0.0313 µg/mL
same,PGT121.60 IC50,[3],0.0056 µg/mL
same,PGT121.60 IC50,[4],0.0255 µg/mL
same,PGT121.60 IC50,[5],0.0079 µg/mL
same,PGT121.60 IC50,[6],0.0397 µg/mL
same,PGT121.60 IC50,[7],0.0058 µg/mL
same,PGT121.60 IC50,[8],0.522 µg/mL
same,PGT121.60 IC50,[9],0.0509 µg/mL
same,PGT121.60 IC50,[10],0.0044 µg/mL
same,PGT121.60 IC50,[11],4.05 µg/mL
same,PGT121.60 IC50,[12],10.3 µg/mL
same,PGT121.60 IC50,[13],0.003 µg/mL
same,PGT121.60 IC50,[14],0.002 µg/mL
same,PGT121.60 IC50,[15],0.203 µg/mL
same,PGT121.60 IC50,[16],0.0106 µg/mL
same,PGT121.60 IC50,[17],11.6 µg/mL
same,PGT121.60 IC50,[18],12.3 µg/mL
same,PGT121.60 IC50,[19],0.041 µg/mL
same,PGT121.60 IC50,[20],0.0497 µg/mL
same,PGT121.60 IC50,[21],0.0034 µg/mL
same,PGT121.60 IC50,[22],1.91 µg/mL
same,PGT121.60 IC50,[23],0.0095 µg/mL
same,PGT121.60 IC50,[24],0.0826 µg/mL
same,PGT121.60 IC50,[25],2.33 µg/mL
same,PGT121.60 IC50,[26],1.44 µg/mL
same,PGT121.60 IC50,[27],0.072 µg/mL
same,PGT121.60 IC50,[28],0.185 µg/mL
same,PGT121.60 IC50,[29],0.431 µg/mL
same,PGT121.60 IC50,[30],11.5 µg/mL
same,PGT121.60 IC50,[31],2.55 µg/mL
